Reference: patent US20240342284A1 (ARSENAL BIOSCIENCES, published 2024)
Blank lines part the entries; values can stand above or below the binder they belong to.

Experiments:
[1] = target: T1, human Prostate-Specific Membrane Antigen (PSMA) expressed on cells (human, UniProt Q04609 1-750); assay: flow cytometry dose curves on HEK293T-PSMA against parental cells (data not shown)
T1 construct: also called FOLH1; HEK293T-PSMA
Description: (§1) PSMA expressing HEK293T cell lines were used to assess the binding of recombinant antibodies to cell surface expressed PSMA. Briefly, HEK293T parental and HEK293T-PSMA engineered cells were first blocked with human Fc blocker for 10 min at room temperature, stained for 30 min on ice with recombinant antibodies in an 8-point serial dilution, and washed 3 times with BD Stain Buffer. Subsequently, cells were stained for 30 min on ice with anti-mouse IgG2a-PE secondary antibody. Cell surface binding was measured on an Attune flow cytometer, with geometric mean fluorescence intensity (gMFI) data analyzed in FlowJo and plotted using GraphPad Prism. The dose-response curves and EC50 value were analyzed and obtained using the nonlinear fit model of (agonist) versus response (three parameters).
Binding of PSMA 1-mIgG2a or PSMA 2-mIgG2a to PSMA was assessed by cell binding dose curves on parental HEK293T cells and HEK293T-PSMA expressing cell lines. […] (data not shown)

recombinant mouse CA9 = target: T2, recombinant mouse CA9 (mouse, UniProt Q8VHB5 32-390, limits assumed); assay: BLI (Octet R8), antibody on anti-mouse capture biosensors, recombinant antigen as analyte
T2 construct: also called mouse homolog of CA9
T2 sequence (Q8VHB5 32-390 limits assumed): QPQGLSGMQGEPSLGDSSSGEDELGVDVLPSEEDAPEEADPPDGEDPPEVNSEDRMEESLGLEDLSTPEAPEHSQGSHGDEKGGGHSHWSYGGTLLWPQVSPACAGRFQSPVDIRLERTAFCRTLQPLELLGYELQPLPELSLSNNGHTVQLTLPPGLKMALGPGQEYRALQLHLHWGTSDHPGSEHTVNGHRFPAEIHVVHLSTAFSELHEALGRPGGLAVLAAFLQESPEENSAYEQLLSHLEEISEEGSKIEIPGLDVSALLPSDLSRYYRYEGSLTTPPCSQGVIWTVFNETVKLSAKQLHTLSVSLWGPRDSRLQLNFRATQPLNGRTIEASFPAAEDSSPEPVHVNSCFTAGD
Description: (§2) The binding affinity of recombinant CA9 antibodies to human CA9 target antigen and cross-reactivity to mouse homologs was measured on the Octet R8. Briefly, recombinant antibody was loaded onto anti-mouse capture (AMC) Octet biosensors. Biosensors were then dipped into different concentrations of recombinant target antigen (analyte) solution, and the rate of protein-protein complex formation (association) measured. Protein-protein dissociation rates were measured when the biosensors were dipped into kinetic buffer alone. The Octet Analysis Studio 13.0 software calculated the response in equilibrium (Req) using the association and dissociation signal. The KD value and other kinetics parameters were determined by the values of Req for each analyte concentration (Table 1).
as §2, with “recombinant” for “recombinant CA9”, “PSMA” for “CA9”, “R8 instrument. […]” for “R8. Briefly, recombinant antibody was loaded onto anti-mouse capture (AMC) Octet biosensors.”, “The KD value and other kinetics parameters were determined by the values of Req for each analyte concentration (Table 1).” left out

[2] = target: T3, human Carbonic Anhydrase IX (CA9) expressed on cells (human, UniProt Q16790 38-459); assay: flow cytometry, 8-point serial dilution on HEK293T-CA9 cells, anti-mouse IgG2a-PE secondary, gMFI
Description: (§3) Binding of recombinant CA9 1-mIgG2a and CA9 2-mIgG2a to CA9 was assessed by cell binding dose curves on parental HEK293T cells and HEK293T-CA9 expressing cell lines. Briefly, HEK293T parental and HEK293T-CA9 engineered cells were first blocked with human Fc blocker for 10 min at room temperature, stained for 30 min on ice with recombinant antibodies in an 8-point serial dilution, and washed 3 times with BD Stain Buffer. Subsequently, cells were stained for 30 min on ice with anti-mouse IgG2a-PE secondary antibody. Cell surface binding was measured on an Attune flow cytometer, with geometric mean fluorescence intensity (gMFI) data analyzed in FlowJo and plotted using GraphPad Prism. The dose-response curves and EC50 value were analyzed and obtained using the nonlinear fit model of (agonist) versus response (three parameters).
(§4) There was no binding to parental HEK293T cells.

[3] = target: T4, mouse CA9 expressed on HEK293T cells (mouse, UniProt Q8VHB5 32-437); assay: flow cytometry histograms on HEK293T-mCA9 cells (panel B, left), axis CA9 1 ab MFI
T4 construct: whole, on cells; also called HEK293T-mCA9; mCA9
T4 sequence (Q8VHB5 32-437): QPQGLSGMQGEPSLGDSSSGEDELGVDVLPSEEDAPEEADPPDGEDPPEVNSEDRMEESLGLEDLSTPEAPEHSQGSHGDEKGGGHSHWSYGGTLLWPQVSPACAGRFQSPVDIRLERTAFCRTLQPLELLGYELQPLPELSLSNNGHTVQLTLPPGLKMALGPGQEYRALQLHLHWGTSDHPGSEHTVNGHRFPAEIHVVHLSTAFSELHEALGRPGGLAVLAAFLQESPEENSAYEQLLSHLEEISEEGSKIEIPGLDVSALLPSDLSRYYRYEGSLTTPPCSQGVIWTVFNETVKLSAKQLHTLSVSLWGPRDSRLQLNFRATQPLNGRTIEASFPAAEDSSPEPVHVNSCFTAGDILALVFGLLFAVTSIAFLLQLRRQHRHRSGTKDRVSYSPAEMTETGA
Source text: To assess cross-reactivity of CA9 1 to mouse CA9 and further confirm the binding kinetics to human CA9, HEK293T-mCA9 cells were stained with increasing concentrations of CA9 1-mIgG2a then analyzed by flow cytometry. Recombinant CA9 1-mIgG2a protein was titrated against parental and engineered HEK293T cell lines expressing mouse CA9. Target cells were also stained with positive control antibodies to confirm expression of mouse CA9 on the engineered HEK293T cells. Following primary staining, the cells were washed, stained with secondary antibody, and subsequently analyzed by flow cytometry. Data were analyzed using FlowJo. Target cells were also stained using an anti-mouse CA9 positive control antibody to confirm expression of mouse CA9 on the HEK293T-mCA9 cells.

recombinant human CA9 = recombinant human CA9 (human, UniProt Q16790 38-414); assay: BLI (Octet R8), antibody on anti-mouse capture biosensors, recombinant human CA9 as analyte
Description: as §2

[4] = target: T5, human CA9 isoform with Q326R SNP, expressed on HEK293T cells (human, UniProt Q16790 38-459); assay: flow cytometry histograms on the snpQ326R CA9 HEK293T line, secondary mouse anti human IgG2 stain
T5 construct: also called CA9-Q326R; Q326R CA9

[5] = target: T3, human Carbonic Anhydrase IX (CA9) …; assay: flow cytometry histograms on the wt line 293T-LP81-CA9(CL572), secondary mouse anti human IgG2 stain
[6] = target: T6, human CA9 isoform with 91-96 deletion, expressed on HEK293T cells (human, UniProt Q16790 38-459); assay: flow cytometry histograms on the 91-96del CA9 HEK293T line, secondary mouse anti human IgG2 stain
T6 construct: also called CA9-91-96del; 91-96del CA9

[7] = target: T3, human Carbonic Anhydrase IX (CA9) …; assay: flow cytometry on HEK293T-CA9 against parental cells (data not shown)
Description: as §3

recombinant mouse PSMA = target: T7, recombinant mouse PSMA (mouse, UniProt O35409 45-752, limits assumed); assay: BLI (Octet R8), antibody on anti-mouse capture biosensors, recombinant antigen as analyte
T7 construct: also called mouse homolog of PSMA
T7 sequence (O35409 45-752 limits assumed): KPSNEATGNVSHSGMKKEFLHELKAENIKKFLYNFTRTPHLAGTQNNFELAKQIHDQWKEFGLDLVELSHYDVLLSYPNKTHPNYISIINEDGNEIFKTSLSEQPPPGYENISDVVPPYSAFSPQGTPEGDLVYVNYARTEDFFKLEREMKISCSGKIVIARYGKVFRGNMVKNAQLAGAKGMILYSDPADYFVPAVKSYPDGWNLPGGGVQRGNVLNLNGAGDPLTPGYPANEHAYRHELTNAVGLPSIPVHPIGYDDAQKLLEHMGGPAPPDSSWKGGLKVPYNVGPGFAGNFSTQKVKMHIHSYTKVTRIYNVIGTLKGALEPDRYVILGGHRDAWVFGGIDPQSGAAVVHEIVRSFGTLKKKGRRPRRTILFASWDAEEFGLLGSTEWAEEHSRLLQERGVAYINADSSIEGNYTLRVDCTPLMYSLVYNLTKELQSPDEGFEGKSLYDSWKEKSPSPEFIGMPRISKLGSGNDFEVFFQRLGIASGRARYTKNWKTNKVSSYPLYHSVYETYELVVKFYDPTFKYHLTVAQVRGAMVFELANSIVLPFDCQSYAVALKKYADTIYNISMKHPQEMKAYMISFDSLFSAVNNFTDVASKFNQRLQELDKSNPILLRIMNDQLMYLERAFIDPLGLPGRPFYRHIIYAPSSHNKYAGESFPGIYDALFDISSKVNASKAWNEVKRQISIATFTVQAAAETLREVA
Description: as §2
as §2, with “recombinant” for “recombinant CA9”, “PSMA” for “CA9”, “R8 instrument. […]” for “R8. Briefly, recombinant antibody was loaded onto anti-mouse capture (AMC) Octet biosensors.”, “The KD value and other kinetics parameters were determined by the values of Req for each analyte concentration (Table 1).” left out

[8] = target: T1, human Prostate-Specific Membrane …; assay: flow cytometry, 8-point serial dilution on HEK293T-PSMA cells, anti-mouse IgG2a-PE secondary, gMFI
Description: as §1, §4

[9] = target: T8, mouse PSMA expressed on HEK293T cells (mouse, UniProt O35409 1-752); assay: flow cytometry histograms on HEK293T-mPSMA cells (panel B, left), axis PSMA 1 ab MFI
T8 construct: whole, on cells; also called HEK293T-mPSMA; mPSMA
T8 sequence (O35409 whole entry): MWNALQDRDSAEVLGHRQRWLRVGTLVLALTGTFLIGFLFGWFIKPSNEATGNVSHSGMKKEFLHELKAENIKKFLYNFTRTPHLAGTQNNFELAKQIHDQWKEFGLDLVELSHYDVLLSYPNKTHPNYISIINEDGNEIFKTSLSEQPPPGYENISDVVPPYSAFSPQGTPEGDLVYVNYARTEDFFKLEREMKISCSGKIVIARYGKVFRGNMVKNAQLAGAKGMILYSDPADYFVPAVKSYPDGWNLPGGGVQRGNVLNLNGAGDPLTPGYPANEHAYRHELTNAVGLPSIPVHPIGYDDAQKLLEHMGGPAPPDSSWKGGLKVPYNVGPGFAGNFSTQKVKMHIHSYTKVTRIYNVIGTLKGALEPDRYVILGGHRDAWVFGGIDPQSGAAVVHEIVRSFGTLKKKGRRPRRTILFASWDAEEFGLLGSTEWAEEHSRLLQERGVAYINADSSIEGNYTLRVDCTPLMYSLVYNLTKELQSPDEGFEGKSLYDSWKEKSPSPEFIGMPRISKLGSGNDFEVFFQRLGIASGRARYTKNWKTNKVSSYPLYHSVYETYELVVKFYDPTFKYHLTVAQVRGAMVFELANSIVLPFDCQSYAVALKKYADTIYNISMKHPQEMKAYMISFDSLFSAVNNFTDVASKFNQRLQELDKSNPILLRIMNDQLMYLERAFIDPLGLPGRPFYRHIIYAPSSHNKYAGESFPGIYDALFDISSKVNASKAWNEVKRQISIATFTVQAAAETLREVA
Description: Cross-reactivity of PSMA 1 to mouse PSMA was evaluated using flow cytometry. In brief, HEK293T cells expressing mouse PSMA (HEK293T-mPSMA) were stained for 30 min on ice with increasing concentrations of PSMA 1-mIgG2a. Target cells were also stained with positive control antibodies to confirm expression of mouse PSMA on the engineered HEK293T cells. Following primary staining, the cells were washed, stained with secondary antibody, and subsequently analyzed by flow cytometry. Data were analyzed using FlowJo.

recombinant human PSMA = target: T9, recombinant human PSMA (human, UniProt Q04609 44-750); assay: BLI (Octet R8), antibody on anti-mouse capture biosensors, recombinant human PSMA as analyte
T9 construct: Soluble recombinant antigen used as analyte on the Octet
T9 sequence (Q04609 44-750 limits assumed): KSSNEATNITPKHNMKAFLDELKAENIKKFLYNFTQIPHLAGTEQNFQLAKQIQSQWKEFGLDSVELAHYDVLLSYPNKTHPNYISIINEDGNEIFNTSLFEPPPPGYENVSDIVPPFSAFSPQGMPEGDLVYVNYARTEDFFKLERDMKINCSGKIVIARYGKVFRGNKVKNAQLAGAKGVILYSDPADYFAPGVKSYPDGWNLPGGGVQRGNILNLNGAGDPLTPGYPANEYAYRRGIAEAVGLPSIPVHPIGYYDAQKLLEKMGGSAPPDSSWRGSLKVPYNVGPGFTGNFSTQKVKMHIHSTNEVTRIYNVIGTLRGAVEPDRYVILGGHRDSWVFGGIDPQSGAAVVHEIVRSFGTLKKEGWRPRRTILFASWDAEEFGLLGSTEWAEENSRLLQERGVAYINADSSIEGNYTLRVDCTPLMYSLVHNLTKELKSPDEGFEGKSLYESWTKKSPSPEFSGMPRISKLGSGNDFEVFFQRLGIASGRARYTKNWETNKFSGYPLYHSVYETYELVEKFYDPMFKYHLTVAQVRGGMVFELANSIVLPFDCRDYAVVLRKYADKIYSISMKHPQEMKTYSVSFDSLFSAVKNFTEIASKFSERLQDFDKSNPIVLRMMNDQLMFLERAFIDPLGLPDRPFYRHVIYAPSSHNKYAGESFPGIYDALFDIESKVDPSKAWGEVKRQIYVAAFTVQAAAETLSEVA
Description: as §2, with “recombinant” for “recombinant CA9”, “PSMA” for “CA9”, “R8 instrument.” for “R8.”, “2).” for “1).”

T1 sequence (Q04609 whole entry): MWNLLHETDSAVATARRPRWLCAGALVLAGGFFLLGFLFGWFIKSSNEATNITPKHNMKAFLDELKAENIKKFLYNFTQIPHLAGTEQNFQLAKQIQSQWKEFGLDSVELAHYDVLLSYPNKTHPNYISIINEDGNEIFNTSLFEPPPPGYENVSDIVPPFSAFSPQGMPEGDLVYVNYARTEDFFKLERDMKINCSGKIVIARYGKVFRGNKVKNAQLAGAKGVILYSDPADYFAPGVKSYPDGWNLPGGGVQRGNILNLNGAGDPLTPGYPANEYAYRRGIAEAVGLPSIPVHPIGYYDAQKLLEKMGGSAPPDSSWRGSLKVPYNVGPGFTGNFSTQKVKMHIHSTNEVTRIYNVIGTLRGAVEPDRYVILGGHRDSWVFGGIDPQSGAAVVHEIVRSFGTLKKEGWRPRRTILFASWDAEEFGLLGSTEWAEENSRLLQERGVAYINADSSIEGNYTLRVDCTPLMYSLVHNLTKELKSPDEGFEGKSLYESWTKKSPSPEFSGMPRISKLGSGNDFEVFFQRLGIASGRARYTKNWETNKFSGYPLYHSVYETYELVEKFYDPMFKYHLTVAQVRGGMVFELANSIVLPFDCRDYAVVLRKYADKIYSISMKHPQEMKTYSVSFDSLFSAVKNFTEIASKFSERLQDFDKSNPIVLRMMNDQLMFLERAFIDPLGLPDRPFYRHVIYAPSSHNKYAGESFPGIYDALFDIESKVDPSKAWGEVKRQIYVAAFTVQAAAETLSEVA

binding result [1]: binds
B1: PSMA 2-mIgG2a (antibody, V domains shown)
VH: QVQLVQSGAEVKKPGASVKVSCKASGYTFSSYGVSWVRQAPGQGLEWMGWISKYNGNTNYAQKFQGRVTMTTDTSTSTAYMELRSLRSDDTAVYFCARGGIHGDSYYFYYLDVWGKGTTVTVSS
VL: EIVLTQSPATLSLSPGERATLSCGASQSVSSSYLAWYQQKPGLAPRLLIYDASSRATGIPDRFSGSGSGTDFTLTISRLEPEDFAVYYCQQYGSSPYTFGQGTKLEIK
notes: Fully human VH and VL cloned into vectors with mouse IgG2a constant domains (chimeric, expressed in CHO)

binding result (recombinant mouse CA9): no binding
EC50 [2]: 0.92 nM
binding result [3]: no binding (tested: 30 µg/mL)
Kd (recombinant human CA9): 0.15 nM
koff (recombinant human CA9): 4.9e-05 s⁻¹
kon (recombinant human CA9): 325000 M⁻¹ s⁻¹
B2: CA9 1-mIgG2a (antibody, V domains shown)
VH: QVQLVQSGAEVKKPGASVKVSCKASGYTFTSYYMHWVRQAPGQGLEWMGIINPSRGSASYAQKFQGRVTMARDTSTSTVYMELSSLRSEDTAVYYCARDRNYYYYMDVWGKGTTVTVSS
VL: EIVMTQSPATLSVSPGERATLSCRASQNISSNLAWYQQKPGQAPRLLIYGASTRATDIPARFSGSGSGTEFTLTISSLQSEDFAVYYCQQYITWYTFGQGTKLEIK
notes: Fully human VH and VL cloned into mammalian expression vectors with mouse IgG2a constant domains (chimeric antibody, expressed in CHO); also called CA9 1 antigen biding fragment

binding result [4]: binds
binding result [5]: binds
binding result [6]: binds
B3: CA9 2 scFv (as printed; CA9 2 is a VH-only single domain) (VHH)
VHH: EVQLVESGGGLVQPGGSLRLSCAASGFSFSDYSGMSWVRQAPGKGEELVSAISPGGGDTYYADSVKGRFTISRDNSKNTLYLQMNSLRAEDTAVYYCARRWWYYSNHSGDYDYFDYRGQGTLVTVSS
notes: It was detected with a secondary 'mouse anti human IgG2' stain

binding result [7]: binds
B4: CA9 2-mIgG2a (antibody, V domains shown)
VH: EVQLVESGGGLVQPGGSLRLSCAASGFSFSDYSGMSWVRQAPGKGEELVSAISPGGGDTYYADSVKGRFTISRDNSKNTLYLQMNSLRAEDTAVYYCARRWWYYSNHSGDYDYFDYRGQGTLVTVSS

binding result [4]: binds
binding result [5]: binds
binding result [6]: binds
B5: CA9 1 scFv (scFv)
scFv: QVQLVQSGAEVKKPGASVKVSCKASGYTFTSYYMHWVRQAPGQGLEWMGIINPSRGSASYAQKFQGRVTMARDTSTSTVYMELSSLRSEDTAVYYCARDRNYYYYMDVWGKGTTVTVSSGGGGSGGGGSGGGGSEIVMTQSPATLSVSPGERATLSCRASQNISSNLAWYQQKPGQAPRLLIYGASTRATDIPARFSGSGSGTEFTLTISSLQSEDFAVYYCQQYITWYTFGQGTKLEIK
notes: Used to stain the CA9 isoform cell lines; It was detected with a secondary 'mouse anti human IgG2' stain

binding result (recombinant mouse PSMA): no binding
EC50 [8]: 1.86 nM
binding result [9]: no binding (tested: 30 µg/mL)
Kd (recombinant human PSMA): 0.3 nM
koff (recombinant human PSMA): 1.89e-05 s⁻¹
kon (recombinant human PSMA): 63300 M⁻¹ s⁻¹
B6: PSMA 1-mIgG2a (antibody, V domains shown)
VH: QVQLVQSGPEVKKPGASVKVSCKASGYTFTSYGITWVRQAPGQGLEWMGWISEYNGNTNYAQKFQGRVTMTIDTSTTTAYMELRSLRSDDTAVYFCARGGILPYYFFYYMDVWGKGTTVTVSS
VL: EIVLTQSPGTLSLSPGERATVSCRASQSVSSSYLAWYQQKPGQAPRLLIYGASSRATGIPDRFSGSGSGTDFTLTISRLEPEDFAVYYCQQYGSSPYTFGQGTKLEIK
notes: Fully human VH and VL cloned into vectors with mouse IgG2a constant domains (chimeric, expressed in CHO); also called PSMA 1 antigen biding fragment
